Source: patent publication US5648233A, “Modified tumor cytotoxic factor (TCF) and DNA encoding such” (Snow Brand Milk Products Co., Ltd., priority 1992, dated 1997)
Several values for one entry are separate records, joined by “and”; a condition that tells them apart may be missing. Equal entries are not always repeated. Where two headings read alike, the source gives them in different places.

What was measured:
[1] = rat
Protocol: Anti-TCF polyclonal antibody was dissolved in 0.1M NaHCO3 solution to a final concentration of 10 μg/mL. One hundred microliters of the antibody solution was added to each well and the plates were left overnight at room temperature. The wells were filled with 50% solution of Block Ace in H2 O, incubated for 1 hour at room temperature and washed three times with washing solution (PBS containing 0.1% Tween 20 ). Plasma samples periodically collected from the rats which were intravenously injected with TCF or the modified TCFs were diluted with normal rat serum, when necessary. TCF solutions serially diluted with normal rat serum (from 10 ng/mL) was used as the standard TCF solution. Fifty microliters of the sample solution and 50 μL of the first buffer (0.2M Tris HCl pH 7.3 containing 50% Block Ace, 0.2M NaCl, 0.1% Tween 20, 0.2% CHAPS, 20 mM Benzamidine hydrochloride, and 10 mM EDTA) was mixed and added to each well. The plates were left for 3 hours at 37° C. and washed three times with the washing buffer. One hundred microliters of the peroxidase-labeled anti-TCF antibody solution, which was 400-fold diluted with 0.1M phosphate buffer pH 7.0 containing 10% Block Ace, 0.15M NaCl, 0.1% Tween 20, 4% rat serum and 0.5% mouse IgG, was added to each well. Plates were incubated for hours at 37° C. and washed three times with the washing buffer. Subsequently, 100 μL of substrate solution (0.4 mg/mL of o-phenylene diamine dihydrochloride and 0.006% H2 O2 in 0.1M citrate-phosphate buffer, pH 4.5) was added to each well and incubated at 37° C. for 30 minutes in a dark place. The enzyme reaction was stopped by addition of 50 μL of 6N H2 SO4. The absorbance at 492 nm was measured on an immuno reader (Corona Co.). Thus concentrations of the TCF or the modified TCFs in rat serum were determined.
Time course of plasma levels were examined by EIA in rats after the single intravenous injection of TCF and the modified TCFs. Hale Wister rats weighing about 200 g were used.

[2] = system: Meth A sarcoma; assay: Tumor cytotoxic activity (MTT); type: cell-based; settings: Meth A cells, 5 days, serial dilution from 50 ng/mL, FIG. 9
Protocol: Tumor cytotoxic activities of TCF, TCF-3 and TCF-13 were measured. Meth A sarcoma was used as a target cell line. The cells were suspended in RPMI medium (GIBCO Co.) supplemented with 10% FCS at a final cell density of 2×10^4 cells per mL. Fifty microliters of the cell suspension was inoculated into each well in 96-well flat-bottomed microtiter plates. The purified TCF, TCF-3 and TCF-13 were serially diluted with RPMI medium from the concentration of 50 ng/mL, and the 50 μL of each diluted sample was added to each test well. After incubation at 37° C. for 5 days, MTT was added at a final concentration of 0.5 mg/ml and the plates were incubated at 37° C. Four hours later, 100 μL of the solution containing 10% SDS and […] was added to each well and left overnight at room temperature. Next day, the absorbance at 620 nm was measured as a parameter of the viable cell numbers in each well.

[3] = background statement; cited from earlier work
[4] = system: normal cells; settings: background statement; cited from earlier work
[5] = system: tumor cells; settings: background statement; cited from earlier work
[6] = single i.v. injection, 50 μg/kg, two-compartment model, Mean ± SD, *P < 0.05, **P < 0.01 vs wild-type TCF

Row | Substance | bioavailabilities (in words) ([1]; in vivo) | AUC (in words) ([1]; in vivo, iv) | CLtotal (total clearance) ([1]; in vivo, iv) [mL/min/kg] | metabolic fates (in words) ([1]; in vivo, iv) | plasma half-lives (in words) ([1]; in vivo, iv) | t1/2 α (plasma half-life of rapid phase) ([1]; in vivo, iv) [min] | t1/2 β (plasma half-life of slower phase) ([1]; in vivo, iv) [min] | total clearance (in words) ([1]; in vivo, iv) | tumor cytotoxic activity (in words) [2] | half-life [3] | growth stimulating activity for normal cells (in words) [4] | cytotoxic activity against tumor cells (in words) [5] | t1/2 α (plasma half-life of rapid phase) [1, 6] | t1/2 β (plasma half-life of slower phase) [1, 6] [min] | CLtotal (total clearance) ([1]; single i.v. injection, 50 μg/kg, Mean ± SD, **P < 0.01 vs wild-type TCF) [mL/min/kg]
1 | TCF-3: modified TCF which lacks oligosaccharide chain 3 (Ser at 563rd replaced with Ala) | larger bioavailabilities | larger AUC | 18.8 ± 2.1 | slower metabolic fates | prolonged | 2.9 ± 0.3 | 54.2 ± 8.3 | decreased | cytotoxic activities to Meth A cells in a dose-dependent manner |  |  |  |  |  | 
2 | TCF: tumor cytotoxic factor derived from human fibroblast; wild-type glycoprotein with four N-linked oligosaccharide chains |  |  |  |  |  |  |  |  | cytotoxic activities to Meth A cells in a dose-dependent manner | approximately 2 minutes | growth stimulating activity for normal cells | strong cytotoxic activity against tumor cells | 2.4 ± 2.5 min and 2.4 ± 0.5 min | 15.6 ± 4.6 | 51.5 ± 13.9
